Reference: US20140348785A1 (US Dept. of Health and Human Services, published 2014)

How the values were obtained:
[1] = biological target: 4E10-specific MPER peptide (gp41 residues 671-683) (HIV-1); experiment: ELISA, peptide coated at 2 ug/ml
[2] = biological target: full MPER peptide (ELISA; gp41 residues 656-683 with lysine triplicates) (HIV-1); experiment: ELISA, peptide coated at 2 ug/ml
[3] = biological target: Z13e1-specific peptide (gp41 residues 666-677) (HIV-1); experiment: ELISA, peptide coated at 2 ug/ml
[4] = biological target: T1, Sjogren's syndrome antigen B (UniProt P05455 1-408); experiment: Luminex AtheNA Multi-Lyte ANA bead assay
T1 construct: Commercial bead antigen; also called SSB; SS-B/La
T1 sequence: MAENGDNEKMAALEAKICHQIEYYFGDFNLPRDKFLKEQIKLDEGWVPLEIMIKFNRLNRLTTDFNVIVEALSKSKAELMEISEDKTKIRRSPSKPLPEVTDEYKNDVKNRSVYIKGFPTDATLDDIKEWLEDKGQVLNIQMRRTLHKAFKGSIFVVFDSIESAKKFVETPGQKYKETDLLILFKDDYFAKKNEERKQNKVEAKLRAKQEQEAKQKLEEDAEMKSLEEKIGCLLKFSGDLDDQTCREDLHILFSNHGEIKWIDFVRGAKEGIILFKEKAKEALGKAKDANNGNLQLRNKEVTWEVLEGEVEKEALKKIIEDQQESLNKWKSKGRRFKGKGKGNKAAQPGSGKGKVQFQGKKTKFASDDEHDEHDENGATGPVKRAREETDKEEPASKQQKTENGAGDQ

[5] = biological target: T2, scleroderma 70 antigen (UniProt P11387 2-765); experiment: Luminex AtheNA Multi-Lyte ANA bead assay
T2 construct: Commercial bead antigen; also called Scl 70; Sc1 70
T2 sequence: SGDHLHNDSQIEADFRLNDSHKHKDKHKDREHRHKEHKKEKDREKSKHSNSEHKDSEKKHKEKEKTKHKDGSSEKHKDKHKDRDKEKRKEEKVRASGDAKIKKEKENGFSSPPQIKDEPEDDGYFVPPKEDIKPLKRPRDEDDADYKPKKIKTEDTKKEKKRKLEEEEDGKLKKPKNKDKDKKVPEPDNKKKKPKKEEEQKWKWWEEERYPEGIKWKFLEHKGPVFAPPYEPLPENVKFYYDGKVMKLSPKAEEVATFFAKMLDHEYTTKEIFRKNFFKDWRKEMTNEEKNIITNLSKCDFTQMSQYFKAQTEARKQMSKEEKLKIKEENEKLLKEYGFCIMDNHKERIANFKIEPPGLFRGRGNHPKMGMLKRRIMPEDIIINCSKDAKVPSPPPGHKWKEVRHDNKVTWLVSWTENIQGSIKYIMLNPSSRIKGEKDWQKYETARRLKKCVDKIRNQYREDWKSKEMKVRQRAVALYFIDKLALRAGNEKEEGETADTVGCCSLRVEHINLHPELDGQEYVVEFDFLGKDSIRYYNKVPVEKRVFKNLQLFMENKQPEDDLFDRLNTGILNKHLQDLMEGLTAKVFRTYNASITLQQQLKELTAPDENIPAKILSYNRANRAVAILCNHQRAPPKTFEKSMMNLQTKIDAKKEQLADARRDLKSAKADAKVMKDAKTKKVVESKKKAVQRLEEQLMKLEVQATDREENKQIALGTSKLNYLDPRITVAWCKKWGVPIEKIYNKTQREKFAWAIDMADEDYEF

[6] = biological target: T3, Jo1 antigen (UniProt P12081 2-509); experiment: Luminex AtheNA Multi-Lyte ANA bead assay
T3 construct: Commercial bead antigen
T3 sequence: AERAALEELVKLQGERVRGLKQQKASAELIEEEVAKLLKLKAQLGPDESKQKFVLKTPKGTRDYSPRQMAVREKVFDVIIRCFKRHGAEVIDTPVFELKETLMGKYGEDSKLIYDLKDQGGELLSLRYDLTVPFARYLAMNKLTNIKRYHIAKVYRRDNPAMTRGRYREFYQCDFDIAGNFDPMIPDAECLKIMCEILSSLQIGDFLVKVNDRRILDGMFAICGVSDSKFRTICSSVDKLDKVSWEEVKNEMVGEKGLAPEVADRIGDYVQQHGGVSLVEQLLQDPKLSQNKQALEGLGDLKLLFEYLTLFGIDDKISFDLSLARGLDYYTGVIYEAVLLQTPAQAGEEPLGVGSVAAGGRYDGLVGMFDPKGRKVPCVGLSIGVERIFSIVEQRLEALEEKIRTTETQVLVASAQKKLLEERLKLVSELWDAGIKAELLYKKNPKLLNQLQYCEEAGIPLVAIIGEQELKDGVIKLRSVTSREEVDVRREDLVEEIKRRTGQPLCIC

[7] = biological target: T4, centromere B (UniProt P07199 2-599); experiment: Luminex AtheNA Multi-Lyte ANA bead assay
T4 construct: Commercial bead antigen; also called CentrB
T4 sequence: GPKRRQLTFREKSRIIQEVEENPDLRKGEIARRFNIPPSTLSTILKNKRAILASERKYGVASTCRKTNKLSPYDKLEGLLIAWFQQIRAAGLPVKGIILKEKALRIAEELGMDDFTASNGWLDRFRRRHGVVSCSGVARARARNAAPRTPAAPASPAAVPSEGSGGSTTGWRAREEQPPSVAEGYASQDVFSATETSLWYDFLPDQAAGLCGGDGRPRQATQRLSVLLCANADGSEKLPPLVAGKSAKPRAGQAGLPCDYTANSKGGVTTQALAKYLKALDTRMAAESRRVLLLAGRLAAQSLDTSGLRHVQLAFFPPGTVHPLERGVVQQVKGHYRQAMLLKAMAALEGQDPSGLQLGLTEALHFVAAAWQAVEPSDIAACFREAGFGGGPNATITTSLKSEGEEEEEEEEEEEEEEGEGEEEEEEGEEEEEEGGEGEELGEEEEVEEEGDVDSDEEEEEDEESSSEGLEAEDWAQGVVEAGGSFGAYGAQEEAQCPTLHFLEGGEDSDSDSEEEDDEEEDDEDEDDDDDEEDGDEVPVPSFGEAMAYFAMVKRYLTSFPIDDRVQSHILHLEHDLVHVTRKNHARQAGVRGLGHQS

B1: 10E8 monoclonal antibody (full-length IgG) (antibody, V domains shown)
VH: EVQLVESGGGLVKPGGSLRLSCSASGFDFDNAWMTWVRQPPGKGLEWVGRITGPGEGWSVDYAAPVEGRFTISRLNSINFLYLEMNNLRMEDSGLYFCARTGKYYDFWSGYPPGEEYFQDWGRGTLVTVSS
VL: SYELTQETGVSVALGRTVTITCRGDSLRSHYASWYQKKPGQAPILLFYGKNNRPSGVPDRFSGSASGNRASLTISGAQAEDDAEYYCSSRDKSGSRLSVFGGGTKLTVL
notes: also called mAb 10E8; wild-type 10E8
[1]
  binding result: binds
[2]
  binding result: binds
[3]
  binding result: no binding
[4]
  binding result: no binding (tested: 50 ug/ml (highest concentration assayed))
[5]
  binding result: no binding (tested: 50 ug/ml (highest concentration assayed))
[6]
  binding result: no binding (tested: 50 ug/ml (highest concentration assayed))
[7]
  binding result: no binding (tested: 50 ug/ml (highest concentration assayed))
